Patent publication US6770740B1, “Crosslinked DNA condesate compositions and gene delivery methods” (The Regents of the University of Michigan, priority 1999, dated 2004)
Bridges are numbered along the chain shown (N, C = ends). Where no end group is shown, it is not given here.

Tests used:
HepG2 cells [1] = assay: Transient SEAP gene expression over 10 days; format: cell-based; details: with chloroquine
Method: HepG2 cells (3×10^5) were plated on 6×35 mm wells and grown for 48 h to 40% confluence in MEM supplemented with 10% fetal calf serum (FCS). Crosslinked DNA condensates (10 μg of DNA in 200 μL) were transfected in triplicate by drop wise addition to cells in 2% FCS either with or without 80 μM chloroquine followed by 5 h incubation, after which the media was replaced with 2 mL of MEM containing 10% fetal calf serum and allowed to incubate for an additional 19 h. Wells were sampled for 10 days at 24 h intervals by removing and freezing (−20° C.) the media and replacing it with 2 mL of fresh 10% FCS MEM.
The amount of SEAP in each well was determined using a chemiluminescent kit. Media (50 μL) was combined with 50 μl of dilution buffer followed by incubation at 65° C. for 30 min to denature endogenous alkaline phosphatase. […] After 30 min, the luminescence was measured with a 10 s integration on a Berthold Lumat™ LB 9501 luminometer. Light units were converted to μg/ml of SEAP using a standard curve constructed by adding known quantities of SEAP to cell homogenate. Background alkaline phosphatase production was determined from a 10 day null control that was subtracted from each data set.

[2] = QELS particle size and zeta potential of cross-linking peptide DNA condensates, Example 5; format: physicochemical
Method: The particle size of each peptide DNA condensate was determined by quasielastic light scattering (QELS) at a scatter angle of both 15° and 90° on a Brookhaven ZetaPlus™ particle sizer. Condensates were prepared at a DNA concentration of 50 μg/ml in 400 μl HBM at a stoichiometry of 0.4 nmol of peptide per μg of DNA corresponding to a charge ratio of approximately 2:1 for each. The mean diameter and population distribution were computed from the diffusion coefficient using a unimodal cummulant analysis supplied by the manufacturer.
The particle size and zeta peptide IV DNA condensates were determined by titrating 7.5 to 37.5 nmol of peptide with 75 μg of DNA in 1.5 ml of HBM to produce 50 μg/ml DNA condensates with charge ratio of 0.5-2.5. The zeta potential was averaged from 10 determines.

HepG2 cells [3] = assay: Luciferase reporter gene expression in HepG2 cells, Example 5; format: cell-based
Method: HepG2 cells (1.5×10^5) were plated on 6×35 mm wells and grown to 40-70% confluency in MEM supplemented with 10% FBS, penicillin and streptomycin (10,000 U/ml), sodium pyruvate (100 mM), and L-glutamine (200 mM). Transfections were performed in MEM (2 ml per 35 mm well) with 2% FBS and 80 μM chloroquine. Peptide DNA condensates (10 μg of DNA in 0.2 ml HBM) were added dropwise to triplicate wells. After a 5 h incubation at 37° C., the media was replaced with MEM supplemented with 10% FBS. After 24 h, cells were washed twice with ice-cold phosphate buffered saline (calcium and magnesium free) and then treated with 0.5 ml of ice-cold lysis buffer (25 mM Tris chloride pH 7.8, 1 mM EDTA, 8 mM magnesium chloride, 1% Triton X-100, 1 mM DTT) for 10 min. The cell lysate was scraped, transferred to 1.5 ml microcentrifuge tubes, and centrifuged for 7 min at 13,000 g at 4° C. to pellet debris.
Lysis buffer (300 μl), sodium-ATP (4 μl of a 180 mM solution, pH 7, 4° C.) and cell lysate (100 μl, 4° C.) were combined in a test tube, briefly mixed and immediately placed in the luminometer. Luciferase relative light units (RLU) were recorded on a Lumat™ LB 9501 (Berthold systems, Germany) with 10 sec integration after automatic injection of 100 μl of 0.5 mM D-luciferin (prepared fresh in lysis buffer without DTT). The RLU were converted in fmol using a standard curve generated by adding a known amount of luciferase (0.01 to 100 fmols with specific activity of 2.5 nU/fmol) to 35 mm wells containing 40-70% confluent HepG2 cells. The cells were processed as described above resulting in a standard curve with an average slope of 7.8×10^6 RLU per fmol of enzyme. Protein concentrations were measured by Bradford assay using bovine serum albumin as a standard (Bradford, 1976). The amount of luciferase recovered in each sample was normalized to milligrams of protein and reported as the mean and standard deviation obtained from triplicate transfections.
LipofectAce™ (Gibco BRL, 1:2.5 w/w dimethyl diotadecylammonium bromide and dioleoyl phosphatidylethanolamine) was used to mediate gene transfection according to the manufacturer's instructions. The ratio of DNA to LepofectAce™ was optimized for HepG2 cells. An optimal DNA/LipofectAce™ ratio was achieved by dissolving 10 μg of DNA in 100 μl serum free media (SFM) followed by adding 60 μl of LipofectAce™ prepared in 140 μl of SFM. The LipfectAce™ DNA complex was then diluted with 1.7 ml of SFM and used to transfect HepG2 cells for 5 h followed by replacing the transfecting media with media supplemented with 10% FBS. The cells were incubated for a total of 24 h, harvested and analyzed for luciferase as described above.

plasmid DNA = assay: Fluorescent dye (thiazole orange) displacement assay of peptide binding to DNA, Example 1; details: corresponding to a charge ratio of 1.8:1
Method: Peptide DNA condensates were formed by adding 75 μg of DNA (pCMVL in 750 μl of 5 mM Hepes pH 7.4) to varying amounts of peptide (7.5 to 90 nmol in 750 μl of Hepes) while vortexing, followed by equilibration at RT for 1 h. Peptide binding to DNA was monitored by a fluorescent dye displacement assay (Wadhwa et al. 1997). A 1 μg aliquot of the peptide DNA condensate was diluted to 1 ml in Hepes containing 0.1 μM thiazole orange. The fluorescence of the intercalated dye was measured on an LS50B fluorimeter (Perkin Elmer, UK) in a microcuvette by exciting at 500 nm while monitoring emission at 530 nm.

[4] = QELS particle size and zeta potential of PEG-peptide DNA condensates and co-condensates, Example 1; format: physicochemical
Method: The particle size of peptide DNA condensates were analyzed at a DNA concentration of 50 μg/ml in Hepes by quasielastic light scattering (QELS). The particle surface change was determined by zeta potential analysis using a Brookhaven ZetaPlus™ (Brookhaven Instruments).
DNA co-condensates were prepared by add-mixing AlkCWK18 and PEG-VS-CWK18 in ratios ranging from 0 to 100 mol %, and condensing DNA at a charge ratio of 2.3:1 as described above. To establish the mol ratio of peptides bound to DNA, condensates were dialyzed in a fixed volume (0.5 ml) dialyzer for 75 h against water using a 100,000 MWCO membrane. Peptide DNA condensates in the retentate (0.5 ml) were dissociated by adding 50 μl of 5 M sodium chloride in 0.1% TFA. AlkCWK18 and PEG-VS-CWK18 were quantified by injecting 1 nmol of peptide (100 μl) onto analytical RP-HPLC eluted with 0.1% TFA and a gradient of acetonitrile (5 to 65% over 30 min) while detecting tryptophan by fluorescence (λex 280 nm, λem 350 nm). The peak integration areas were used to quantify AlkCWK18 and PEG-VS-CWK18 with reference to standard curves developed for each peptide.

[5] = Solubility of peptide DNA condensates: particle size as a function of DNA concentration; format: physicochemical; details: at 2 mg/ml DNA
HepG2 cells [6] = assay: In vitro luciferase gene expression, Example 1; format: cell-based; details: HepG2, 24 h post-transfection, 10 μg DNA, 80 μM chloroquine
Method: HepG2 cells were plated at 1.5×10^5 cells per 35 mm well and grown to 40-70% confluence in MEM supplemented with 10% fetal calf serum (FCS). Peptide DNA condensates (10 μg of DNA) were added dropwise to triplicate sets of cells in 2% FCS containing 80 μM chloroquine. After 5 h incubation at 37° C., the media was replaced with MEM supplemented with 10% FCS, and luciferase expression was determined at 24 h. Cells were washed twice with ice-cold phosphate buffered saline (calcium and magnesium free) and then treated with 0.5 ml of ice-cold lysis buffer (25 mM Tris hydrochloride pH 7.8, 1 mM EDTA, 8 mM magnesium chloride, 1% Triton X-100, 1 mM DTT) for 10 min. The cell lysate was scraped, transferred to 1.5 ml micro centrifuge tubes, and centrifuged for 7 min at 13,000 g at 4° C. to pellet debris.
Lysis buffer (300 μl), sodium-ATP (4 μl of a 180 mM solution, pH 7, 4° C.) and cell lysate (100 μl, 4° C.) were combined in a test tube, briefly mixed and immediately placed in the luminometer. Luciferase relative light units (RLU) were recorded on a Lumat™ LB 9501 (Berthold Systems, Germany) with 10 sec integration after automatic injection of 100 μl of 0.5 mM D-luciferin (prepared fresh in lysis buffer without DTT). […]

HepG2 cells [7] = assay: Cell binding of 125I-DNA condensates, Example 1; format: cell-based; details: 5 h transfection, 10 μg 125I-DNA condensates
Method: Iodinated plasmid DNA was prepared with specific activity of 300 nCi per μg of DNA as described previously (Teribesi et al., 1998). Prior to forming DNA condensates, the specific activity of the ^125I DNA was adjusted to 4.5 nCi per μg of DNA by combining with unlabeled plasmid. DNA condensates were prepared using AlkCWK18, PEG-SS-CWK18 or PEG-VS-CWK18 as described above. Peptide ^125I-DNA condensates (10 μg) were used to transfer HepG2 cells for 5 h according to the procedure described above. The radioactive media was removed, cells were washed with phosphate buffered saline, harvested with lysis buffer, and the cell-associated radioactivity was quantified by gamma counting.

peptide:DNA stoichiometry at the asymptote of the dye displacement titration curve (relative DNA binding affinity) (plasmid DNA)	Substance	more gene product relative to CWK18 DNA condensates (HepG2 cells [1])	slope of the day 7-10 cumulative SEAP expression (HepG2 cells [1]; HMW polylysine panel (FIG. 29B)) [ng/mL]	Particle Size Mean Diameter, Oxidized, 15° ([2]; HBM after 2 h incubation, 50 μg/ml DNA, 0.4 nmol peptide per μg DNA, scattering angle 15°) [nm]	Particle Size Mean Diameter, Oxidized, 90° ([2]; HBM after 2 h incubation, 50 μg/ml DNA, 0.4 nmol peptide per μg DNA, scattering angle 90°) [nm]	Particle Size Mean Diameter, Saline ([2]; HBM with added saline (0.15 M) after 15 min) [nm]	Particle Size Mean Diameter, Reduced ([2]; following addition of TCEP (1 mM)) [nm]	inferiority to polylysine1007 as a DNA carrier (gene expression) (HepG2 cells [3]) [fold]	zeta potential of DNA condensates ([4]; charge ratio 1.8:1)	mean diameter of DNA condensates ([4]; charge ratio of 1.8:1 or higher, 50 μg/ml DNA in Hepes) [nm]	mean diameter of DNA condensates [5] [nm]	reduction of spontaneous gene transfer (luciferase expression) relative to AlkCWK18 DNA condensates (HepG2 cells [6])	cell associated 125I-DNA, percent of dose (HepG2 cells [7]) [%]
	Lys18-Trp-Cys-S-S-Cys-Trp-Lys18 (KKKKKKKKKKKKKKKKKKWCCWKKKKKKKKKKKKKKKKKK; disulfide 20-21; also: disulfide-linked dimer of two CWK18 chains, no peptide bond between positions 20 and 21) [DiCWK18]	approximately 10%	32.7	74	68	171	153	5					
0.3 nmol per μg of DNA	PEG-SS-CWK18: reducible PEG-peptide from PEG-orthopyridyl-disulfide (5 kDa) and the sulfhydryl of CWK18 (CWKKKKKKKKKKKKKKKKKK; not fully specified (residue 1))								+10 mV	90	88	five-fold	6.8
